Publication PMC8939769

Molecular target: SARS-CoV-2 spike protein receptor binding domain (RBD) (SARS-CoV-2) (UniProt P0DTC2)
Assay: ELISA

“AZD7442 (combination of AZD8895 and AZD1061)” was tested, and the IC50 was 0.065 µg/mL.
